Patent publication US20230012273A1 (Boehringer Ingelheim, published 2023)

How the values were obtained:
[1] = target: T1, full-length cynomolgus SIRPβ1 (XP_005568598) on CHO cells, clone PA2 (cynomolgus monkey); assay: flow cytometry, CHO cells
T1 construct: whole, on cells; also called SIRPβ1 XP_005568598 Clone PA2
Description: (§1) Antibody binding to cells expressing full-length cynomolgus SIRPβ1 (XP_005568598) and SIRPβ1v3 (XP_005568593) is evaluated by flow cytometry. SIRPβ1- or SIRPβ1V3-expressing CHO cells are blocked with donkey IgG and incubated on ice with increasing concentrations of antibodies for 60 minutes, washed and stained with AF647-conjugated donkey F(ab′)₂ anti-human IgG secondary reagent. Cells are washed, fixed, and analyzed by flow cytometry. Median fluorescent intensity is determined and used as a measure of antibody binding.

[2] = target: T2, full-length human SIRPβ1 (NP_006056.2) on cells (human, UniProt O00241 30-398); assay: flow cytometry, Expi-CHO cells
T2 construct: also called β1 WT
Description: (§2) These cells are blocked with donkey IgG and incubated on ice with increasing concentrations of antibodies for 60 minutes, washed and stained with AF647-conjugated donkey F(ab′)₂ anti-human IgG antibodies. Stained cells are washed, fixed, and analyzed by flow cytometry. Median fluorescent intensity is determined and used as a measure of antibody binding.

[3] = target: T3, full-length human SIRPγ N→D on Expi-CHO cells (human, UniProt Q9P1W8 29-387); assay: flow cytometry, Expi-CHO cells
T3 construct: the entry already carries the change (PENV to PEDV)
Description: as §2, with “Expi-CHO parental cells are transduced with lentiviruses containing either full-length wild-type human SIRPγ ([…]) or full-length human SIRPγ with amino acid point mutations (Table 64) and sorted to achieve matching expression levels. These” for “These”

[4] = target: T4, full-length human SIRPγ EN→DD on Expi-CHO cells (human, UniProt Q9P1W8 29-387); assay: flow cytometry, Expi-CHO cells
T4 construct: the entry already carries the change (PENV to PDDV)
T4 chain: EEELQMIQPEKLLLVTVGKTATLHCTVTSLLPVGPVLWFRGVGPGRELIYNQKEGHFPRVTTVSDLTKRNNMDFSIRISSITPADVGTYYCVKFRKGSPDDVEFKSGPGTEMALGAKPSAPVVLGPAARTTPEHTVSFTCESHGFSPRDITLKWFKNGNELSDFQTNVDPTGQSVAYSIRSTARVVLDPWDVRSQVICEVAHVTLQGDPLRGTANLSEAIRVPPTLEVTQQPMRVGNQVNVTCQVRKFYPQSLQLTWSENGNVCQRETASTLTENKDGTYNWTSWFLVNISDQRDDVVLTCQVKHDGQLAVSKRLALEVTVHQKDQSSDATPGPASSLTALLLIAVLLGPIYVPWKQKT
Description: as §2, with “Expi-CHO parental cells are transduced with lentiviruses containing either full-length wild-type human SIRPγ ([…]) or full-length human SIRPγ with amino acid point mutations (Table 64) and sorted to achieve matching expression levels. These” for “These”

[5] = target: T5, full-length human SIRPαV1 (NP_542970.1) on cells (human, UniProt P78324 31-504); assay: flow cytometry, CHO-K1 cells
T5 construct: one molecule for CHO-K1 and Expi-CHO transfectants (NP_542970.1) and for endogenous V1 on U-937 cells and on CD14+ monocytes of V1/V1 donors; also called CHO-hSIRPαV1; αV1 WT
Description: Antibody binding to cells expressing SIRPα is evaluated by flow cytometry. CHO-K1 parental cells (negative control), CHO-K1 cells expressing full-length human SIRPαV1 (NP_542970.1) or CHO-K1 cells expressing full-length human SIRPαV2 (CAA71403.1) are blocked with donkey IgG and incubated on ice with increasing concentrations of antibodies for 60 minutes, washed and stained with AF647-conjugated donkey F(ab′)₂ anti-human IgG secondary reagent. Cells are washed, fixed, and analyzed by flow cytometry. Median fluorescent intensity is determined and used as a measure of antibody binding.

[6] = target: T6, full-length human SIRPαV1 D→N on Expi-CHO cells (human, UniProt P78324 31-504); assay: flow cytometry, Expi-CHO cells
T6 construct: the entry already carries the change (PDDV to PDNV)
Description: as §2, with “Expi-CHO parental cells are transduced with lentiviruses containing either full-length wild-type human SIRPαV1 allele (NP_542970.1) or full-length human SIRPαV1 with amino acid point mutations (Table 56) and sorted to achieve matching expression levels. These” for “These”

[7] = target: T7, full-length human SIRPαV1 DD→EN on Expi-CHO cells (human, UniProt P78324 31-504); assay: flow cytometry, Expi-CHO cells
T7 construct: the entry already carries the change (PDDV to PENV)
Description: as §2, with “Expi-CHO parental cells are transduced with lentiviruses containing either full-length wild-type human SIRPαV1 allele (NP_542970.1) or full-length human SIRPαV1 with amino acid point mutations (Table 56) and sorted to achieve matching expression levels. These” for “These”

[8] = target: T8, full-length human SIRPαV2 (CAA71403.1) on cells (human, UniProt P78324 31-504); assay: flow cytometry, THP-1 cells (endogenous V2)
T8 construct: one molecule for CHO-K1 and Expi-CHO transfectants (CAA71403.1) and for endogenous V2 on THP-1 cells and on CD14+ monocytes of V2/V2 donors; also called CHO-hSIRPαV2; αV2 WT
Description: (§3) Antibody binding to human monocytic cell lines homozygous for the V1-allele (U-937) or the V2-allele (THP-1) of SIRPα is assessed. U-937 or THP-1 cells are blocked with donkey IgG and incubated on ice with increasing concentrations of antibodies for 60 minutes, washed and stained with AF647-conjugated donkey F(ab′)₂ anti-human IgG secondary reagent. Cells are washed, fixed, and analyzed by flow cytometry. Median fluorescent intensity is determined and used as a measure of antibody binding.

[9] = target: T5, full-length human SIRPαV1 (NP_542970.1) …; assay: flow cytometry, U-937 cells (endogenous V1)
Description: as §3

[10] = target: T5, full-length human SIRPαV1 (NP_542970.1) …; assay: flow cytometry, competition with CD47 tetramer, CHO-K1 cells
Description: (§4) Cells are washed, fixed, and analyzed by flow cytometry. Median fluorescent intensity is determined and used as a measure of CD47 binding.

[11] = target: T8, full-length human SIRPαV2 (CAA71403.1) …; assay: as above
Description: as §4

[12] = target: T9, full-length cynomolgus SIRPβ1v3 (XP_005568593) on CHO cells, clone 1HC6 (cynomolgus monkey); assay: flow cytometry, CHO cells
T9 construct: also called SIRPβ1v3 XP-005568593 Clone 1HC6
Description: as §1

B1: Antibody A (antibody, human IgG1, kappa, L234A L235A)
heavy: not shown
light: DIQMTQSPSSLSASVGDRVTITCRASQDINNYLAWFQQKPGKAPKSLIYTASSLHSGVPSKFSGSGSGTDFTLTISSLQPEDFATYYCQQYVSYPYTFGQGTKLEIKRTVAAPSVFIFPPSDEQLKSGTASVVCLLNNFYPREAKVQWKVDNALQSGNSQESVTEQDSKDSTYSLSSTLTLSKADYEKHKVYACEVTHQGLSSPVTKSFNRGEC
EC50 [1]: 0.7 nM | EC50 [2]: 1.6 nM | EC50 [3]: 0.4 nM | EC50 [4]: 0.6 nM

B2: Antibody A10 (antibody, human IgG1, kappa, L234A L235A)
heavy: not shown
light: DIQMTQSPSSLSASVGDRVTITCRASQDINNYLAWFQQKPGKAPKSLIYTASSLHSGVPSKFSGSGSGTDFTLTISSLQPEDFATYYCQQYVSYPYTFGQGTKLEIKRTVAAPSVFIFPPSDEQLKSGTASVVCLLNNFYPREAKVQWKVDNALQSGNSQESVTEQDSKDSTYSLSSTLTLSKADYEKHKVYACEVTHQGLSSPVTKSFNRGEC
EC50 [1]: 0.6 nM | EC50 [2]: 1.6 nM | EC50 [3]: 0.5 nM | EC50 [4]: 0.7 nM

B3: Antibody C (antibody, human IgG1, kappa, L234A L235A, V domains shown)
VH: EVQLVESGGGLVQPGGSLRLSCAASGFTFSSYDMHWVRQATGKGLEWVSVIGIAGDTYYPGSVKGRFTISRENAKNSLYLQMNSLRVGDTAVYYCARGGSWDDAFDIWGQGTMVTVSS
VL: DIQMTQSPSSLSASIGDKVTITCRASQDINNYLAWFQQKPGKAPKSLIYTASSLQSGVPSKFSGSGSGTDFTLTISSLQPEDFATYYCQQYVSYPYTFGQGTKLEIKR
EC50 [5]: 1 nM | EC50 [6]: 2.7 nM | EC50 [7]: 1.1 nM | EC50 [2]: 0.2 nM | EC50 [8]: 0.3 nM | EC50 [9]: 0.6 nM | IC50 [10]: 0.7 nM | IC50 [11]: 0.3 nM

B4: Antibody E (antibody, human IgG1, kappa, L234A L235A)
heavy: not shown
light: DIVMTQSPLSLPVTPGEPASISCKSSQSLLYSNGYNYLDWYLQRPGQSPQLLIYLGSNRASGVPDRFSGSGSGTDFTLKISRVEAEDVGVFYCMQALQTPLTFGGGTKVEIKRTVAAPSVFIFPPSDEQLKSGTASVVCLLNNFYPREAKVQWKVDNALQSGNSQESVTEQDSKDSTYSLSSTLTLSKADYEKHKVYACEVTHQGLSSPVTKSFNRGEC
EC50 [12]: 0.8 nM | EC50 [5]: 2 nM | EC50 [6]: 0.4 nM | EC50 [7]: 0.4 nM | EC50 [8]: 0.4 nM | EC50 [9]: 0.5 nM | IC50 [10]: 0.7 nM

B5: Antibody E22 (antibody, human IgG1, kappa, L234A L235A, V domains shown)
VH: QVQLQESGPGLVKPSETLSLTCTVSGGSIRDYYWSWIRQPPGKGLEWIGFIYYNGRTFYQSSLKSRVTISLDTSKNQFSLKMTSVTAADTAVYYCARVRAYSGIGLDGTDVWGQGTTVTVSS
VL: DIVMTQSPLSLPVTPGEPASISCRSSQSLLYSTGYTYLDWYLQRPGQSPQLLIYGGSSRASGVPDRFSGSGSGTDFTLKISRVEAEDVGVFYCGQALQTPLTFGQGTKVEIKR
EC50 [12]: 1 nM | EC50 [6]: 0.8 nM | EC50 [7]: 0.6 nM

B6: Anti-SIRPα antibody KWAR23 (antibody, V domains shown)
VH: EVQLQQSGAELVKPGASVKLSCTASGFNIKDYYIHWVQQRTEQGLEWIGRIDPEDGETKYAPKFQDKATITADTSSNTAYLHLSSLTSEDTAVYYCARWGAYWGQGTLVTVSS
VL: QIVLTQSPAIMSASPGEKVTLTCSASSSVSSSYLYWYQQKPGSSPKLWIYSTSNLASGVPARFSGSGSGTSYSLTISSMEAEDAASYFCHQWSSYPRTFGAGTKLELK
EC50 [1]: 0.2 nM | EC50 [12]: 0.4 nM | EC50 [5]: 1 nM | EC50 [6]: 0.2 nM | EC50 [7]: 0.2 nM | EC50 [2]: 0.2 nM | EC50 [3]: 0.3 nM | EC50 [4]: 0.3 nM | EC50 [8]: 0.2 nM | EC50 [9]: 0.5 nM | IC50 [10]: 0.9 nM | IC50 [11]: 0.6 nM

B7: Antibody D (antibody, human IgG1, kappa, L234A L235A, V domains shown)
VH: EVQLVESGGGLVQPGGSLRLSCAASGFTFSSFDMHWVRQPTGKGLEWVSTIGIAGDTYFPGSVKGRFTISRENAKNSLYLQMNSLRAGDTAVYYCARGGNWDDALDIWGQGTMVTVSS
VL: DIQMTQSPSSLSASVGDRVTITCRASQDINNYLAWFQQKPGKAPKSLIYTASSLQSGVPSKFSGSGSGTDFTLTISSLQPEDFATYYCQQYNTYPYTFGQGTKLEIKR
EC50 [5]: 0.7 nM | EC50 [6]: 9.6 nM | EC50 [7]: 6.6 nM | EC50 [2]: 0.2 nM | EC50 [3]: 0.3 nM | EC50 [4]: 0.3 nM | EC50 [8]: 0.3 nM | EC50 [9]: 0.5 nM | IC50 [10]: 0.6 nM | IC50 [11]: 0.3 nM

B8: Antibody B (antibody, human IgG1, kappa, L234A L235A, V domains shown)
VH: QVQLVQSGAEVKKPGASVKVSCKASGYTFTGNYMHWVRQAPGQGLEWMGWINPNSGGTNYAQKFQGRVTMTRDTSISTAYMELSRLRSDDTAVYYCVSGSGWYENYYYYGMDVWGQGTTVTVSS
VL: DIQMTQSPSSVSASVGDRVTITCRASQGISSWLAWYQQKPGKAPKLLIYAESSLQSGVPSRFSGSGSGTDFTLTISSLQPEDFATYYCQQANSFPLTFGGGTKVEIKR
EC50 [5]: 12 nM | EC50 [3]: 4.8 nM | EC50 [4]: 5.3 nM | EC50 [8]: 22.3 nM | EC50 [9]: 21.1 nM | IC50 [10]: 5.6 nM | IC50 [11]: 6 nM
